The source of these data is the supplement of paper PMC7877785.

This series is described as follows: self-splicing fitness, log relative to wild type (ln ratio); higher = more splicing; Tetrahymena group I intron in knt gene, E. coli kanamycin selection, DiMSum; sequences stand for … in CUCUCU…GGAGGGAAAAGUUAUCAGGCAUGCACCUGGUAGCUAGUCUUUAAACCAAUAGAUUGCAUCGGUUUAAAAGGCAAGACCGUCAAAUUGCGGGAAAGGGGUCAACAGCCGUUCAGUACCAAGUCUCAGGGGAAACUUUGAGAUGGCCUUGCAAAGGGUAUGGUAAUAAGCUGACGGACAUGGUCCUAACCACGCAGCCAAGUCCUAAGUCAACAGAUCUUCUGUUGAUAUGGAUGCAGUUCACAGACUAAAUGUCGGUCGGGGAAGAUGUAUUCUUCUCAUAAGAUAUAGUCGGACCUCUCCUUAAUGGGAGCUAGCGGAUGAAGUGAUGCAACACUGGAGCCGCUGGGAACUAAUUUGUAUGCGAAAGUAUAUUGAUUAGUUUUGGAGUACUCGUGGUCG
In a few lines:
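Colonies from six replicate transformations of E. coli BL21(DE3) were pooled and amplicon-sequenced on an Illumina HiSeq 2500. The library placed an intron with all eight P1ex-region nucleotides randomised inside the knt kanamycin-resistance gene on pET-22b(+), and cells grew overnight at 37°C or 30°C on LB agar with or without 25 μg/mL kanamycin (plus 100 μg/mL carbenicillin, 50 μM IPTG, 0.2% rhamnose). Fitness is the DiMSum error-weighted combination of wild-type-normalised replicate fold changes, kanamycin versus none.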

± gives the uncertainty stated by the source.

On to AGAGAGCAAUAUUACGCAUC, for which the “self-splicing fitness (ln)” value was -2.22 ± 0.28 (30 °C) and -1.91 ± 0.22 (37 °C).

With UACAAGCAAUAUUACGAUGG, the “self-splicing fitness (ln)” value was -1.37 ± 0.079 (30 °C) and -0.712 ± 0.085 (37 °C).

Regarding CCUGAGCAAUAUUACGCACC, the “self-splicing fitness (ln)” value (37 °C) was -1.74 ± 0.4.

For CUUCAGCAAUAUUACGUUCA, the “self-splicing fitness (ln)” value reads like this: (30 °C) -3.63 ± 0.26; (37 °C) -2.04 ± 0.23.

As for UGUUAGCAAUAUUACGUUCG, the “self-splicing fitness (ln)” value (30 °C) is 0.135 ± 0.16 and the “self-splicing fitness (ln)” value (37 °C) was 0.292 ± 0.16.

As to ACAUAGCAAUAUUACGCAGU, the “self-splicing fitness (ln)” value runs as follows: (30 °C) -3.57 ± 0.28; (37 °C) -2.84 ± 0.36.

Consider UACCAGCAAUAUUACGUGAA, for which the “self-splicing fitness (ln)” value (30 °C) is -1.06 ± 0.053 and the “self-splicing fitness (ln)” value (37 °C) was -0.463 ± 0.076.

Regarding GGAAAGCAAUAUUACGUACC, the “self-splicing fitness (ln)” value is -2.13 ± 0.46 (30 °C) and -2.35 ± 0.49 (37 °C).

As to GCAUAGCAAUAUUACGACCC, the “self-splicing fitness (ln)” value is, setting by setting: (30 °C) -0.0863 ± 0.27; (37 °C) 0.324 ± 0.39.

Regarding CUACAGCAAUAUUACGAGUA, the “self-splicing fitness (ln)” value is -3.39 ± 0.18 (30 °C) and -1.71 ± 0.12 (37 °C).

For the sequence UGUCAGCAAUAUUACGGUAU, the “self-splicing fitness (ln)” value reads like this: (30 °C) -2.46 ± 0.14; (37 °C) -1.11 ± 0.12.

In the case of AAAAAGCAAUAUUACGCAAA, the “self-splicing fitness (ln)” value by setting is: (30 °C) -1.15 ± 0.13; (37 °C) -1.43 ± 0.17.

As to AAGCAGCAAUAUUACGCGGC, the “self-splicing fitness (ln)” value reads like this: (30 °C) -3.33 ± 0.35; (37 °C) -2.4 ± 0.24.

Regarding CAAUAGCAAUAUUACGUCUU, the “self-splicing fitness (ln)” value was -3.63 ± 0.14 (30 °C) and -2.09 ± 0.13 (37 °C).

Consider AGCAAGCAAUAUUACGGCUG, for which the “self-splicing fitness (ln)” value was -0.939 ± 0.077 (30 °C) and -1.4 ± 0.13 (37 °C).

Take GUCAAGCAAUAUUACGACAA: the “self-splicing fitness (ln)” value runs as follows: (30 °C) -3.81 ± 0.4; (37 °C) -2.58 ± 0.27.

As to UCGUAGCAAUAUUACGUGUC, the “self-splicing fitness (ln)” value by setting is: (30 °C) -3.24 ± 0.25; (37 °C) -2.38 ± 0.25.

For the sequence GCAAAGCAAUAUUACGCAGA, the “self-splicing fitness (ln)” value (37 °C) is -2.76 ± 0.3.

Take CAAUAGCAAUAUUACGUAGC: the “self-splicing fitness (ln)” value (37 °C) is -2.05 ± 0.3.

As for UGCCAGCAAUAUUACGUGGA, the “self-splicing fitness (ln)” value (30 °C) is -3.33 ± 0.18 and the “self-splicing fitness (ln)” value (37 °C) is -1.71 ± 0.13.

On to ACCCAGCAAUAUUACGUGGA, for which the “self-splicing fitness (ln)” value (30 °C) was -0.54 ± 0.048 and the “self-splicing fitness (ln)” value (37 °C) amounted to 0.15 ± 0.057.

As to GGACAGCAAUAUUACGCGUA, the “self-splicing fitness (ln)” value runs as follows: (30 °C) -0.744 ± 0.065; (37 °C) -0.68 ± 0.073.

Turning to AGCAAGCAAUAUUACGUCGC, the “self-splicing fitness (ln)” value (37 °C) is -0.083 ± 0.23.

AGAUAGCAAUAUUACGUGCG: the “self-splicing fitness (ln)” value (30 °C) is -1.19 ± 0.06 and the “self-splicing fitness (ln)” value (37 °C) is -0.409 ± 0.081.

As to ACAAAGCAAUAUUACGGGGA, the “self-splicing fitness (ln)” value by setting is: (30 °C) -2.95 ± 0.14; (37 °C) -1.05 ± 0.088.

Take UUCAAGCAAUAUUACGGGAG: the “self-splicing fitness (ln)” value reads like this: (30 °C) -1.78 ± 0.098; (37 °C) -0.95 ± 0.097.

For the sequence GGACAGCAAUAUUACGAUAG, the “self-splicing fitness (ln)” value runs as follows: (30 °C) -3.66 ± 0.25; (37 °C) -2.13 ± 0.23.

Turning to UUACAGCAAUAUUACGCCGA, the “self-splicing fitness (ln)” value is -1.29 ± 0.2 (30 °C) and -0.354 ± 0.22 (37 °C).

For UGGAAGCAAUAUUACGAGUC, the “self-splicing fitness (ln)” value is -2.78 ± 0.29 (30 °C) and -3.37 ± 0.33 (37 °C).

As for CGAGAGCAAUAUUACGCGGU, the “self-splicing fitness (ln)” value (30 °C) is -3.23 ± 0.23 and the “self-splicing fitness (ln)” value (37 °C) was -2.4 ± 0.24.

With UCAAAGCAAUAUUACGAAUG, the “self-splicing fitness (ln)” value is, setting by setting: (30 °C) -1.71 ± 0.11; (37 °C) -1.67 ± 0.25.

For the sequence UGAGAGCAAUAUUACGUCGU, the “self-splicing fitness (ln)” value is -2.38 ± 0.2 (30 °C) and -2.64 ± 0.36 (37 °C).

For ACUCAGCAAUAUUACGAAUG, the “self-splicing fitness (ln)” value (30 °C) is -1.17 ± 0.11 and the “self-splicing fitness (ln)” value (37 °C) was -0.992 ± 0.15.

As for AAAUAGCAAUAUUACGCUUA, the “self-splicing fitness (ln)” value was -1.47 ± 0.11 (30 °C) and -0.735 ± 0.13 (37 °C).

For CGGAAGCAAUAUUACGUUCG, the “self-splicing fitness (ln)” value reads like this: (30 °C) -2.69 ± 0.18; (37 °C) -2.29 ± 0.34.

UGGGAGCAAUAUUACGUCGG: the “self-splicing fitness (ln)” value (30 °C) is -0.491 ± 0.24.

For UAUCAGCAAUAUUACGACGU, the “self-splicing fitness (ln)” value (30 °C) is -1.22 ± 0.094 and the “self-splicing fitness (ln)” value (37 °C) is -0.199 ± 0.11.

For the sequence AUAAAGCAAUAUUACGUACU, the “self-splicing fitness (ln)” value came to 0.123 ± 0.081 (30 °C) and 0.445 ± 0.095 (37 °C).

CCCGAGCAAUAUUACGCCAG: the “self-splicing fitness (ln)” value (30 °C) is -2.69 ± 0.38.
